Results on one substance are retold here after paper PMC3751582.

This assay concerns the target Drosophila melanogaster cystathionine β-synthase (Drosophila melanogaster). As to the kind of experiment: native gel or EMSA.

Consider “Drosophila melanogaster cystathionine β-synthase (enzyme)”, for which the stoichiometry N amounted to 2.
